Data as given in article PMC6367351 (Nature Communications, 2019).
Where no end group is shown, it is not given here.

B1: MinElp3 Δ1–46 (domain or fragment, Methanocaldococcus infernus, UniProt D5VRB9 47-534, looked up)
chain: SNSEILKYATEEEKKILIPILRKKPVRTISGVAVVAVMTSPAKCPHGKCIFCPGGLDSVFGDVPQSYTGREPATMRGLMFNFDPYLQTRARIEQLEKVGHPTDKIELIIMGGTFPAREIEYQDWFIKRCLDAMNERESKSLEEAQKINETAKHRCVALCIETRPDYCSEKEINQMLKLGATRVELGVQSIYNEILKLCKRGHSVEDTIKATQLLKDSGLKVSYHLMPGMPGSSIEMDKKMFKEIFTNPDFMPDMVKIYPCLVIEGTELYEMWKRGEFKPYREEEAIEVISYAKSIMPKWVRTSRIQRDIPATVIVDGVKKSNLGELVYKYMEKKGLRCRCIRCREVGHVYYKKGILPDPEHIKLVREDYEASGGTEIFLSFEDVKNDILIAFLRLRDPYKPFRKEIDDKTMLVRQLHVFGWEKALTRDIKEVSWQHMGYGRMLMKEAERIAKEEFGKKKILVTSGIGVREYYRKLGYKRVGAYMGKEL
notes: Elp3 of Methanocaldococcus infernus without residues 1-46; Truncations were cloned into pETM30 or pETM11; source: E. coli BL21 (DE3) CodonPlus-RIL, purified (GSTPrep, heparin, SEC)
B2: MinElp3 Δ1–68 (domain or fragment, Methanocaldococcus infernus, UniProt D5VRB9 69-534, looked up)
chain: KKPVRTISGVAVVAVMTSPAKCPHGKCIFCPGGLDSVFGDVPQSYTGREPATMRGLMFNFDPYLQTRARIEQLEKVGHPTDKIELIIMGGTFPAREIEYQDWFIKRCLDAMNERESKSLEEAQKINETAKHRCVALCIETRPDYCSEKEINQMLKLGATRVELGVQSIYNEILKLCKRGHSVEDTIKATQLLKDSGLKVSYHLMPGMPGSSIEMDKKMFKEIFTNPDFMPDMVKIYPCLVIEGTELYEMWKRGEFKPYREEEAIEVISYAKSIMPKWVRTSRIQRDIPATVIVDGVKKSNLGELVYKYMEKKGLRCRCIRCREVGHVYYKKGILPDPEHIKLVREDYEASGGTEIFLSFEDVKNDILIAFLRLRDPYKPFRKEIDDKTMLVRQLHVFGWEKALTRDIKEVSWQHMGYGRMLMKEAERIAKEEFGKKKILVTSGIGVREYYRKLGYKRVGAYMGKEL
notes: Elp3 of Methanocaldococcus infernus without residues 1-68; Truncations were cloned into pETM30 or pETM11; source: E. coli BL21 (DE3) CodonPlus-RIL, purified (GSTPrep, heparin, SEC)
B3: MinElp3 Δ1–19 (domain or fragment, Methanocaldococcus infernus, UniProt D5VRB9 20-534, looked up)
chain: GKTLDKKRIEQIKSECLRIYRIGIGHPSNSEILKYATEEEKKILIPILRKKPVRTISGVAVVAVMTSPAKCPHGKCIFCPGGLDSVFGDVPQSYTGREPATMRGLMFNFDPYLQTRARIEQLEKVGHPTDKIELIIMGGTFPAREIEYQDWFIKRCLDAMNERESKSLEEAQKINETAKHRCVALCIETRPDYCSEKEINQMLKLGATRVELGVQSIYNEILKLCKRGHSVEDTIKATQLLKDSGLKVSYHLMPGMPGSSIEMDKKMFKEIFTNPDFMPDMVKIYPCLVIEGTELYEMWKRGEFKPYREEEAIEVISYAKSIMPKWVRTSRIQRDIPATVIVDGVKKSNLGELVYKYMEKKGLRCRCIRCREVGHVYYKKGILPDPEHIKLVREDYEASGGTEIFLSFEDVKNDILIAFLRLRDPYKPFRKEIDDKTMLVRQLHVFGWEKALTRDIKEVSWQHMGYGRMLMKEAERIAKEEFGKKKILVTSGIGVREYYRKLGYKRVGAYMGKEL
notes: Elp3 of Methanocaldococcus infernus without residues 1-19; Truncations were cloned into pETM30 or pETM11; The general purification goes by a GST tag that is cleaved; source: E. coli BL21 (DE3) CodonPlus-RIL, purified (GSTPrep, heparin, SEC)
B4: MinElp3 Δ1–54 (domain or fragment, Methanocaldococcus infernus, UniProt D5VRB9 55-534, looked up)
chain: ATEEEKKILIPILRKKPVRTISGVAVVAVMTSPAKCPHGKCIFCPGGLDSVFGDVPQSYTGREPATMRGLMFNFDPYLQTRARIEQLEKVGHPTDKIELIIMGGTFPAREIEYQDWFIKRCLDAMNERESKSLEEAQKINETAKHRCVALCIETRPDYCSEKEINQMLKLGATRVELGVQSIYNEILKLCKRGHSVEDTIKATQLLKDSGLKVSYHLMPGMPGSSIEMDKKMFKEIFTNPDFMPDMVKIYPCLVIEGTELYEMWKRGEFKPYREEEAIEVISYAKSIMPKWVRTSRIQRDIPATVIVDGVKKSNLGELVYKYMEKKGLRCRCIRCREVGHVYYKKGILPDPEHIKLVREDYEASGGTEIFLSFEDVKNDILIAFLRLRDPYKPFRKEIDDKTMLVRQLHVFGWEKALTRDIKEVSWQHMGYGRMLMKEAERIAKEEFGKKKILVTSGIGVREYYRKLGYKRVGAYMGKEL
notes: Elp3 of Methanocaldococcus infernus without residues 1-54; Truncations were cloned into pETM30 or pETM11; source: E. coli BL21 (DE3) CodonPlus-RIL, purified (GSTPrep, heparin, SEC)
B5: MinElp3 Δ1–41 (domain or fragment, Methanocaldococcus infernus, UniProt D5VRB9 42-534, looked up)
chain: GIGHPSNSEILKYATEEEKKILIPILRKKPVRTISGVAVVAVMTSPAKCPHGKCIFCPGGLDSVFGDVPQSYTGREPATMRGLMFNFDPYLQTRARIEQLEKVGHPTDKIELIIMGGTFPAREIEYQDWFIKRCLDAMNERESKSLEEAQKINETAKHRCVALCIETRPDYCSEKEINQMLKLGATRVELGVQSIYNEILKLCKRGHSVEDTIKATQLLKDSGLKVSYHLMPGMPGSSIEMDKKMFKEIFTNPDFMPDMVKIYPCLVIEGTELYEMWKRGEFKPYREEEAIEVISYAKSIMPKWVRTSRIQRDIPATVIVDGVKKSNLGELVYKYMEKKGLRCRCIRCREVGHVYYKKGILPDPEHIKLVREDYEASGGTEIFLSFEDVKNDILIAFLRLRDPYKPFRKEIDDKTMLVRQLHVFGWEKALTRDIKEVSWQHMGYGRMLMKEAERIAKEEFGKKKILVTSGIGVREYYRKLGYKRVGAYMGKEL
notes: Elp3 of Methanocaldococcus infernus without residues 1-41; Truncations were cloned into pETM30 or pETM11; source: E. coli BL21 (DE3) CodonPlus-RIL, purified (GSTPrep, heparin, SEC)

Legend:
MinElp3 = molecular target: T1, MinElp3 (Methanocaldococcus infernus, UniProt D5VRB9 1-534); assay: EMSA; EMSA: 25 C 30 min, 6% native PAGE at 4 C; tRNA stored in 20 mM HEPES pH 7.5, 150 mM NaCl, 5 mM DTT, 1 mM MgCl2; MST buffer not given in material; conditions: protein: recombinant; tags: GST tag cleaved (TEV); label: Cy5; hairpin
T1 sequence: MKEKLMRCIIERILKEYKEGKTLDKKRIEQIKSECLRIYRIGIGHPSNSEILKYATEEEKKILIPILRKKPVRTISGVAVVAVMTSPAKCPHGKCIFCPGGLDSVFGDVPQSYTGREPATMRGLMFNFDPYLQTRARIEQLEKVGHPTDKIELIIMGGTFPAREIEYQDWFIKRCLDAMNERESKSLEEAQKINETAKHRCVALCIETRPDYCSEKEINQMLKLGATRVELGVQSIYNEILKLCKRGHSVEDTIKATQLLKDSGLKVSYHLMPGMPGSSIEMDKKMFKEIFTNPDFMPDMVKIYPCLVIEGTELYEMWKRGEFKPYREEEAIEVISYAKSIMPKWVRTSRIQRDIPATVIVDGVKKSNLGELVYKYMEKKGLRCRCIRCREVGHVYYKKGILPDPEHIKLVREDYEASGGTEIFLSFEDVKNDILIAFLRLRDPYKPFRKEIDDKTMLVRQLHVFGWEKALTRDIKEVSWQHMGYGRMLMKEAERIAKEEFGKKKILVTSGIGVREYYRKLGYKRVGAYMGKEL

[1] = molecular target: the molecule itself; assay: SEC; S200 gel filtration, 20 mM HEPES pH 7.5, 150 mM NaCl, 5 mM DTT; aerobic purification; masses of the monomeric forms confirmed by SDS-PAGE and light scattering (RALS and LALS)
[2] = molecular target: T2, Methanocaldococcus infernus Elp3, full length (Methanocaldococcus infernus, UniProt D5VRB9 1-534); assay: ITC
T2 chain: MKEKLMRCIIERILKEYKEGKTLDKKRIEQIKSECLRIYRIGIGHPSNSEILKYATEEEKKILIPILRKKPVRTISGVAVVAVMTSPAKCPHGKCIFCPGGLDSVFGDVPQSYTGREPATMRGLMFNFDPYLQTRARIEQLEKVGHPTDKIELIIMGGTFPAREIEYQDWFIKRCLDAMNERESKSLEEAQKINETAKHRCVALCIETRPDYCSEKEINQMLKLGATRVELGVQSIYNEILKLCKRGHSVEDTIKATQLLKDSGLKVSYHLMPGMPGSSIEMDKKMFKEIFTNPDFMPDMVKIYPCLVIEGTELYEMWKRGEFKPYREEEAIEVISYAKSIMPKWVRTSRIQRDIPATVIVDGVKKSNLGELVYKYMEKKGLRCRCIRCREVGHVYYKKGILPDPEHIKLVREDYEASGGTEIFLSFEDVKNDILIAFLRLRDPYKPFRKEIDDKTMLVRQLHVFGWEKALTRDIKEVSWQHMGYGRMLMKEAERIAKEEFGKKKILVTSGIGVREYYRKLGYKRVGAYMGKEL

| Binder | binding result [1] | other results |
| --- | --- | --- |
| GACAGACUUGAAAUCUGUU (structured_RNA) [ASL yeast tRNASerUGA] |  | binding result (MinElp3): binds |
| B1 | binds |  |
| B2 | binds |  |
| B3 | binds |  |
| B4 | binds |  |
| B5 | binds |  |
| YSTGGKAPRK-NH2 (not fully specified (N-terminus)) [histone H3 peptide H3(10–18) with an added N-terminal tyrosine] |  | Kd [2]: > 350 µM |
